This is an account of results in publication PMC10560217, “Structural conservation of insulin/IGF signalling axis at the insulin receptors level in Drosophila and humans” (Nature Communications, 2023).

This data set concerns the molecule itself. Kind of data set: cryo-EM structure; equal volumes of 10 uM dmIR-ECD and 50 uM DILP5 (five-molar hormone excess) in 50 mM Tris, 150 mM NaCl, pH 7.4; reconstruction at 4.0 A.

B1: Drosophila insulin receptor ectodomain (dmIR-ECD) (domain or fragment, Drosophila melanogaster, UniProt P09208 264-1309, looked up)
chain: LPAHQQHLLHNDIADGLDKTALSVSGTQSRWTRSESNPTMRLSQNVKPCKSMDIRNMVSHFNQLENCTVIEGFLLIDLINDASPLNRSFPKLTEVTDYIIIYRVTGLHSLSKIFPNLSVIRGNKLFDGYALVVYSNFDLMDLGLHKLRSITRGGVRIEKNHKLCYDRTIDWLEILAENETQLVVLTENGKEKECRLSKCPGEIRIEEGHDTTAIEGELNASCQLHNNRRLCWNSKLCQTKCPEKCRNNCIDEHTCCSQDCLGGCVIDKNGNESCISCRNVSFNNICMDSCPKGYYQFDSRCVTANECITLTKFETNSVYSGIPYNGQCITHCPTGYQKSENKRMCEPCPGGKCDKECSSGLIDSLERAREFHGCTIITGTEPLTISIKRESGAHVMDELKYGLAAVHKIQSSLMVHLTYGLKSLKFFQSLTEISGDPPMDADKYALYVLDNRDLDELWGPNQTVFIRKGGVFFHFNPKLCVSTINQLLPMLASKPKFFEKSDVGADSNGNRGSCGTAVLNVTLQSVGANSAMLNVTTKVEIGEPQKPSNATIVFKDPRAFIGFVFYHMIDPYGNSTKSSDDPCDDRWKVSSPEKSGVMVLSNLIPYTNYSYYVRTMAISSELTNAESDVKNFRTNPGRPSKVTEVVATAISDSKINVTWSYLDKPYGVLTRYFIKAKLINRPTRNNNRDYCTEPLVKAMENDLPATTPTKKISDPLAGDCKCVEGSKKTSSQEYDDRKVQAGMEFENALQNFIFVPNIRKSKNGSSDKSDGAEGAALDSNAIPNGGATNPSRRRRDVALEPELDDVEGSVLLRHVRSITDDTDAFFEKDDENTYKDEEDLSSNKQFYEVFAKELPPNQTHFVFEKLRHFTRYAIFVVACREEIPSEKLRDTSFKKSLCSDYDTVFQTTKRKKFADIVMDLKVDLEHANNTESPVRVRWTPPVDPNGEIVTYEVAYKLQKPDQVEEKKCIPAADFNQTAGYLIKLNEGLYSFRVRANSIAGYGDFTEVEHIKVEPPPSYA
modifications: N-glycosylation at Asn606 (traces in the cryoEM reconstruction)
notes: a starting methionine was added in front; codon optimised; Asn335 is the first residue seen in the maps; Described as an (alpha-beta)2 homodimer; each protomer comes from one expressed precursor chain (alpha and beta subunits), protomers linked by disulfides; Mass used for ITC 233538 g/mol (the dimer); also called dmIR ectodomain; source: Sf9 cells, baculovirus, secreted into conditioned media, …
The term stoichiometry N denotes a count of units in the complex or per binding partner. B1: the “stoichiometry N” value was found to be 2.
